Test results: publication PMC8913309 (The Journal of Biological Chemistry, 2022)
Numbering of substitutions follows the chain as printed. In names and notes the source's numbering stands.

B1: Plasmodium falciparum phosphoglycerate mutase 1 (PfPGM1), recombinant His6-tagged WT protein (enzyme)
chain: MTTYTLVLLRHGESTWNKENKFTGWTDVPLSEKGEEEAIAAGKYLKEKNFKFDVVYTSVLKRAICTAWNVLKTADLLHVPVVKTWRLNERHYGSLQGLNKSETAKKYGEEQVKIWRRSYDIPPPKLDKEDNRWPGHNVVYKNVPKDALPFTECLKDTVERVLPFWFDHIAPDILANKKVMVAAHGNSLRGLVKHLDNLSEADVLELNIPTGVPLVYELDENLKPIKHYYLLDSEELKKKMDEVANQGKAK
B2: PfPGM1 K100R, recombinant His6-tagged mutant protein (enzyme, Plasmodium falciparum)
chain: B1 chain with K100R
B3: PfPGM1 P163A, recombinant His6-tagged mutant protein (enzyme, Plasmodium falciparum)
chain: B1 chain with P163A

Molecular target: the molecule itself
Experiment: SEC
For B1, the “stoichiometry N” value was 4. For B2, the “stoichiometry N” value was 4. With B3 the “stoichiometry N” value was 2.
